Measurements as given in US20160136231A1 (ROGNE BIOSCIENCE, published 2016).

T1: mouse ChemR23, PathHunter β-Arrestin cell line (mouse, UniProt P97468 1-371)
T1 sequence (P97468 whole entry, looked up): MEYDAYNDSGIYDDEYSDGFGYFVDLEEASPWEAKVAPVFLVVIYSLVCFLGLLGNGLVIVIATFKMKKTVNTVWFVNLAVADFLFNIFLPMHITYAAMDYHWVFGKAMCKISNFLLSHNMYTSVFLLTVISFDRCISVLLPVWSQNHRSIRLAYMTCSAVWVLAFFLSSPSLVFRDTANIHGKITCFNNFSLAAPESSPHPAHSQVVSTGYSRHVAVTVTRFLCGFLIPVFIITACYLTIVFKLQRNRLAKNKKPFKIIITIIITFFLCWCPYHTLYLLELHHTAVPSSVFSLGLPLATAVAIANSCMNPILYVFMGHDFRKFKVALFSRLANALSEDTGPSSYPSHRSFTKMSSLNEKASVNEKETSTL

T2: human ChemR23, cAMP Hunter cell line (human, UniProt Q99788 1-373)
T2 sequence (looked up): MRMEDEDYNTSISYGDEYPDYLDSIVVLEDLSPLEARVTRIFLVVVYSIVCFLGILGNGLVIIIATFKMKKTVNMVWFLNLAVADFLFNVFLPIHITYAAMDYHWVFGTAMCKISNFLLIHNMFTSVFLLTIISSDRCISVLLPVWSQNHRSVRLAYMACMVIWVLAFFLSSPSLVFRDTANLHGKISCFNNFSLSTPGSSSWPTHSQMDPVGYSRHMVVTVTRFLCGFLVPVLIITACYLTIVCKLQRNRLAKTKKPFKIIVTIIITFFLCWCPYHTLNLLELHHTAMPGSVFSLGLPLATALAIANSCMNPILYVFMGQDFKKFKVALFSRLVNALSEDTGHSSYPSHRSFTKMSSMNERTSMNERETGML

T3: GPR1, PathHunter β-Arrestin CHO cell line (human, UniProt P46091 1-355)
T3 sequence (P46091 whole entry, species assumed, looked up): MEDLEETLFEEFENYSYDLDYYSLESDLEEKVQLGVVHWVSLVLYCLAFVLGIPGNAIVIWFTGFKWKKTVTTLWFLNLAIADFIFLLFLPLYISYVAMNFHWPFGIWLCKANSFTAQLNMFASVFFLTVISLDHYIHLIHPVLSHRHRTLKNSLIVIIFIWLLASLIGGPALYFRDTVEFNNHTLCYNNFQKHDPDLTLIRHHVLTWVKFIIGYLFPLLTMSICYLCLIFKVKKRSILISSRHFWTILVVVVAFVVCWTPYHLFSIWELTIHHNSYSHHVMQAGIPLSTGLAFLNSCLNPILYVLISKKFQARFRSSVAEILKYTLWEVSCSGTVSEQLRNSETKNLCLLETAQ


What follows are binders tested against T1, mouse ChemR23, PathHunter β-Arrestin … (assay: cell-based or functional assay).

Binder	EC50, Arrestin, Agonist (RC50, uM) [µM]	IC50, Arrestin, Antagonist (RC50, uM) [µM]
AGEDPHGYFLPGQFA [mouse chemerin C15 peptide]	> 10	> 10
AGEDPHSFYFPGQFA [human chemerin C15 peptide]	> 10	9.66
AGEDPHSFYFPGQFAFS [human chemerin C17 peptide]	0.84	> 10
AGEDPHSFYFPGQFAF [human chemerin C16 peptide]	0.0385	> 10

The binders below were run against T2, human ChemR23, cAMP Hunter cell line (assay: cell-based or functional assay).

Binder	IC50, cAMP, Antagonist (RC50, uM) [µM]
AGEDPHGYFLPGQFA [mouse chemerin C15 peptide]	> 10
AGEDPHSFYFPGQFA [human chemerin C15 peptide]	> 10
AGEDPHSFYFPGQFAFS [human chemerin C17 peptide]	> 10
AGEDPHSFYFPGQFAF [human chemerin C16 peptide]	> 10

What follows are binders tested against human ChemR23 (CMKLR1), PathHunter β-Arrestin CHO cell line (human, UniProt Q99788 1-373) (assay: cell-based or functional assay).

Binder	% Max Activity, PathHunter β-Arrestin agonist [%]	% Max Inhibition, PathHunter β-Arrestin antagonist against chemerin at EC80 [%]	[EC50] (M), PathHunter β-Arrestin agonist [M]	[IC50] (M), PathHunter β-Arrestin antagonist against chemerin at EC80 [M]
AGEDPHGYFLPGQFA [mouse chemerin C15 peptide]	0.4	0	> 1e-05	> 1e-05
AGEDPHSFYFPGQFA [human chemerin C15 peptide]	0.8	0	> 1e-05	> 1e-05
AGEDPHSFYFPGQFAFS [human chemerin C17 peptide]	67.5	0	4.8e-07	> 1e-05
AGEDPHSFYFPGQFAF [human chemerin C16 peptide]	98.6	0	2.9e-08	> 1e-05

The binders below were run against T3, GPR1, PathHunter β-Arrestin CHO cell … (assay: cell-based or functional assay).

Binder	% Max Activity, PathHunter β-Arrestin agonist [%]	% Max Inhibition, PathHunter β-Arrestin antagonist against chemerin at EC80 [%]	[EC50] (M), PathHunter β-Arrestin agonist [M]	[IC50] (M), PathHunter β-Arrestin antagonist against chemerin at EC80 [M]
AGEDPHGYFLPGQFA [mouse chemerin C15 peptide]	27.8	0	3.7e-06	> 1e-05
AGEDPHSFYFPGQFA [human chemerin C15 peptide]	10.6	0	0.017	> 1e-05
AGEDPHSFYFPGQFAFS [human chemerin C17 peptide]	80.9	0	1.5e-09	> 1e-05
AGEDPHSFYFPGQFAF [human chemerin C16 peptide]	87.9	0	2.1e-09	> 1e-05
